The record followed here is the MegaScale stability set (Tsuboyama et al. 2023).

The labels stand for the following.
B1: 2M8U (parent)
chain: TKAQVIEAFKVFDRDGNGYVTVDYLRKVLNELGDMMPADEIEEMIYEADPQNSGYVQYETFVGMLFL

The data set covers variants of B1. Description: folding stability dG (cDNA display proteolysis); higher = more stable. The note with it: PBS, room temperature.
Consider TKAQVIEAFKVFDRDGNGYVTVDYLRKVLNEEGDMMPADEIEEMIYEADPQNSGYVQYETFVGMLFL, for which the “folding stability dG” value turned out to be 2.04 kcal/mol.

As to TKAQVIEAFKVFDRDGNGYVTVDYLRKVLNELVDMMPADEIEEMIYEADPQNSGYVQYETFVGMLFL, the “folding stability dG” value was found to be 3.83 kcal/mol.

As for TKAQVIEAFKVFDRDGNGYVTVDYLRKVLNELTDMMPADEIEEMIYEADPQNSGYVQYETFVGMLFL, the “folding stability dG” value worked out at 3.81 kcal/mol.

Turning to TKAQVIEQFKVFDRDGNGYVTVDYLRKVLNELGDMMPADEIEEMIYEADPQNSGYVQYETFVGMLFL, the “folding stability dG” value was found to be 3.3 kcal/mol.

For the variant TKAQVIEAFKVFDRDGNWYVTVDYLRKVLNELGDMMPADEIEEMIYEADPQNSGYVQYETFVGMLFL, the “folding stability dG” value is 2.68 kcal/mol.

In the case of TKAQVVEAFKVFDRDGNGYVTVDYLRKVLNELGDMMPADEIEEMIYEADPQNSGYVQYETFVGMLFL, the “folding stability dG” value came out at 2.86 kcal/mol.

TKAQVREAFKVFDRDGNGYVTVDYLRKVLNELGDMMPADEIEEMIYEADPQNSGYVQYETFVGMLFL: the “folding stability dG” value amounted to 2.46 kcal/mol.

With TKAQVIEAFKVFDRDGKGYVTVDYLRKVLNELGDMMPADEIEEMIYEADPQNSGYVQYETFVGMLFL, the “folding stability dG” value came out at 3.01 kcal/mol.

On to TKAQVIEAFKVFDRDGNGYVTVDYLRKVLNELGDMMPADEIEEMEYEADPQNSGYVQYETFVGMLFL, for which the “folding stability dG” value stood at 2.15 kcal/mol.

Regarding TKAQVIEAFKVFDRDGNGYVTVDYLRKVLNELGDMMPADEIEEMLYEADPQNSGYVQYETFVGMLFL, the “folding stability dG” value was determined as 3.19 kcal/mol.

Turning to TKAQVIEAFKVFDRDGNGYVTVDYLRKVLNELGDMMPADEIEEMCYEADPQNSGYVQYETFVGMLFL, the “folding stability dG” value came to 2.67 kcal/mol.

Consider TKAQVIEAFKVFDRDGNGYVTVDYLRKVLNELGDMMPADEIEEMIYEADPQNSGCVQYETFVGMLFL, for which the “folding stability dG” value was found to be 3.44 kcal/mol.

In the case of TKAQVIEAFKVFDRDGNGYVTVDYLRKVLNELGDMMPADEIEEMIYEADPQNSGKVQYETFVGMLFL, the “folding stability dG” value was 3.25 kcal/mol.

In the case of TKAQVIEAFKVFDRDGNGYVTVDYLRKVLNELGDMMPADEIEEMIYEADPQNSGYVQYETFDGMLFL, the “folding stability dG” value was 1.28 kcal/mol.

As to TKAQVIEAFKVFDRDGNGYVTVDYLRKVLNELGDMMPADEIEEMIYEADPQNSGYVQYETFSGMLFL, the “folding stability dG” value was found to be 2.36 kcal/mol.

As to TKAQVIEAFKVFVRDGNGYVTVDYLRKVLNELGDMMPADEIEEMIYEADPQNSGYVQYETFVGMLFL, the “folding stability dG” value is 2.3 kcal/mol.

Turning to TKAQVIEAFKVFKRDGNGYVTVDYLRKVLNELGDMMPADEIEEMIYEADPQNSGYVQYETFVGMLFL, the “folding stability dG” value came out at 1.39 kcal/mol.

Turning to TKAQVIEAFKVFDRDGNGYVTVDYLRKVLNELGDMMPADEIEEMIYEADMQNSGYVQYETFVGMLFL, the “folding stability dG” value was found to be 3.05 kcal/mol.

TKAQVIEAFKVFDRDGNGYVTVDYLRKVLNELGDMMPADEIEEMIYEADLQNSGYVQYETFVGMLFL: the “folding stability dG” value was 3.21 kcal/mol.

As to TKAQVIEAFKVFDRDGNGYVTVDYLRKVLNELGDMMPADEIEEMIYEADEQNSGYVQYETFVGMLFL, the “folding stability dG” value turned out to be 2.89 kcal/mol.

For the variant TKAQVIEAFKVFDRDGNGYVTVDYLRKVSNELGDMMPADEIEEMIYEADPQNSGYVQYETFVGMLFL, the “folding stability dG” value is 2.06 kcal/mol.

Consider TKAQVIEAFKVFDRDGNGYVTVDYLRKVKNELGDMMPADEIEEMIYEADPQNSGYVQYETFVGMLFL, for which the “folding stability dG” value is 1.33 kcal/mol.

TKAQVIEAFKVFDRDGNGYVTVDYLRKVLNELGDMMRADEIEEMIYEADPQNSGYVQYETFVGMLFL: the “folding stability dG” value turned out to be 3.45 kcal/mol.

TKAYVIEAFKVFDRDGNGYVTVDYLRKVLNELGDMMPADEIEEMIYEADPQNSGYVQYETFVGMLFL: the “folding stability dG” value was 2.97 kcal/mol.

TKAIVIEAFKVFDRDGNGYVTVDYLRKVLNELGDMMPADEIEEMIYEADPQNSGYVQYETFVGMLFL: the “folding stability dG” value is 3.15 kcal/mol.

For TKAQVIEAFKVFDRDGNGYVTVDYLRKVLNELGDMMPADEITEMIYEADPQNSGYVQYETFVGMLFL, the “folding stability dG” value was 3.41 kcal/mol.

Consider TKAQVIEAFKVFDRDGNGYVTVDYLRKVLNELGDMMPADEIAEMIYEADPQNSGYVQYETFVGMLFL, for which the “folding stability dG” value worked out at 3.26 kcal/mol.

Consider TKAQVIEAFKVFDRDGNGYVEVDYLRKVLNELGDMMPADEIEEMIYEADPQNSGYVQYETFVGMLFL, for which the “folding stability dG” value amounted to 3.65 kcal/mol.

For TKAQVIEAFKVFDRDGNGYVTVDYLRKVLNELGDMMPADEIEEMIYEADPQCSGYVQYETFVGMLFL, the “folding stability dG” value turned out to be 3.42 kcal/mol.

Consider TKAQVIEAFKVFDRDGNGYYTVDYLRKVLNELGDMMPADEIEEMIYEADPQNSGYVQYETFVGMLFL, for which the “folding stability dG” value came to 1.85 kcal/mol.

In the case of TKAQVIEAFKVFDRDGNGYVTVDYLRKVLNELGDMMPADEIEEMIYEADPQNSGYVQYETFVGMLFA, the “folding stability dG” value was found to be 3.98 kcal/mol.

Take TKAQVIEAFKVFDRDGNGYVTVDYLRKVLNELGDMMPADEIEEMIYEADPQNSGYVQYETFVGMLFN: the “folding stability dG” value was 3.67 kcal/mol.

In the case of TKAQVIEAFKVFDRDGNGYVTVDYLRKVLNELGDMMPADEIEEMIYEADPQNSGYVQYETFVGILFL, the “folding stability dG” value was 3.15 kcal/mol.

For TKAQVIEAFKVFDRDGNGYVTVDYVRKVLNELGDMMPADEIEEMIYEADPQNSGYVQYETFVGMLFL, the “folding stability dG” value stood at 3.01 kcal/mol.

Take TKAQVIEAFKVFDRDGNGYVTVDYMRKVLNELGDMMPADEIEEMIYEADPQNSGYVQYETFVGMLFL: the “folding stability dG” value came out at 2.69 kcal/mol.

Turning to TKAQVIEAFKVFDRDGNGYVTVDYGRKVLNELGDMMPADEIEEMIYEADPQNSGYVQYETFVGMLFL, the “folding stability dG” value stood at 1.92 kcal/mol.

Take TKAQVIEAFKVFDRDGNGYVTVDYSRKVLNELGDMMPADEIEEMIYEADPQNSGYVQYETFVGMLFL: the “folding stability dG” value stood at 1.72 kcal/mol.

With TKAQVIEAFKVFDRDGNGYVTVDYDRKVLNELGDMMPADEIEEMIYEADPQNSGYVQYETFVGMLFL, the “folding stability dG” value was determined as 1.27 kcal/mol.

In the case of TKAQVIEAFKVFDRDGNGYVTVDYLRKVLNELGDMQPADEIEEMIYEADPQNSGYVQYETFVGMLFL, the “folding stability dG” value came out at 3.19 kcal/mol.

As to TKAQVIEAFKVFDRDGNGYVTVDYLRKVLNPLGDMMPADEIEEMIYEADPQNSGYVQYETFVGMLFL, the “folding stability dG” value came out at 2.78 kcal/mol.
